Experimental data taken from the RNAGym collection of RNA variant scans (doi:10.7554/elife.90254).

B1: OR4K15 (parent)
chain: GUUAACGGUCAUAGGCCAUGGAAACUAGGAGCACCAUUUCGCUGCCAGUGAAGAAAUGAACAAAGAAAAUCUGGGCCAGGCAGGCAUCAAAAGAAAUAGUCUUGCGCUCAACCAGAAAGUCUGUAAUCAUUUUAAGGGUA

Variants of: B1
Assay: self-cleavage, relative activity (ratio to wild type); higher = more cleavage; in vitro, sequencing; the parent is a self-cleaving ribozyme

First: GUUAACGGUCAUAGGCCAUGGAAACUAGGAGCACCAUUUCGCUGCCAGUGAAGAAAUGAACAAAGAUAAUCUGGGCCAGGCAGGCAUCAAAAGAAAUAGUCUUGCGCUCAACCAGAAAGUCUGUAAUCAUUUUGAGGGUA [A67U A134G]
Second: GUUAACGGUCAUAGGCCAUGGAAACUAGGAGCACCAUUUCGCUGCCAGUGAAGAAAUGAACAAAGAACAUCUGGGCCAGGCAGGCAUCAAAAGAAAUAGUCUUGCGCUCAACCAGAAGGUCUGUAAUCAUUUUAAGGGUA [A68C A118G]
The self-cleavage of the first is lower: 1.09 for the first, 1.84 for the second.

Compared with GUUAACGGUCAUAGGCCAUGGAAACUAGGAGCACCAUUUCGCUGCCAGUGAAGAAAUGAACAAAGAUAAUCAGGGCCAGGCAGGCAUCAAAAGAAAUAGUCUUGCGCUCAACCAGAAAGUCUGUAAUCAUUUUAAGGGUA [A67U U72A], GUUAACGGUCAUAGGCCAUGGAAACUAGGAGCACCAUUUCGCUGCCAGUGAAGAAAUGAACAAAGAUAAUCCGGGCCAGGCAGGCAUCAAAAGAAAUAGUCUUGCGCUCAACCAGAAAGUCUGUAAUCAUUUUAAGGGUA [A67U U72C] is higher in self-cleavage: 0.2 for the first, 0.31 for the second.

First: GUUAACGGUCAUAGGCCAUGGAAACUAGGAGCACCAUUUCGCUGCCAGUGAAGAAAUGAACAAAGAUAAUCUGGGCCAGGCAGGCAUCAAAAGAAAUAGUCUUGCGCUCAACCAGAAAGCCUGUAAUCAUUUUAAGGGUA [A67U U120C]
Second: GUUAACGGUCAUAGGCCAUGGAAACUAGGAGCACCAUUUCGCUGCCAGUGAAGAAAUGAACAAAGAUAAUCUGGGCCAGGCAGGCAUCAAAAGAAAUAGUCUUGCGCUCAACCAGAAAGACUGUAAUCAUUUUAAGGGUA [A67U U120A]
The self-cleavage of the first is lower: 1.13 for the first, 2.17 for the second.

Going from GUUAACGGUCAUAGGCCAUGGAAACUAGGAGCACCAUUUCGCUGCCAGUGAAGAAAUGAACAAAGAUAAUCUGGGCCAGGCAGGCAUCAAAAGAAAUAGUCUUGCGCUCAACCAGAAAGUCUGUAAUCACUUUAAGGGUA [A67U U130C] to GUUAACGGUCAUAGGCCAUGGAAACUAGGAGCACCAUUUCGCUGCCAGUGAAGAAAUGAACAAAGAUAAUCUGGGCCAGGCAGGCAUCAAAAGAAACAGUCUUGCGCUCAACCAGAAAGUCUGUAAUCAUUUUAAGGGUA [A67U U97C], the self-cleavage rises from 1.04 to 1.43.

Compared with GUUAACGGUCAUAGGCCAUGGAAACUAGGAGCACCAUUUCGCUGCCAGUGAAGAAAUGAACAAAGAUAAUCUGGGCCAGGCAGGUAUCAAAAGAAAUAGUCUUGCGCUCAACCAGAAAGUCUGUAAUCAUUUUAAGGGUA [A67U C85U], GUUAACGGUCAUAGGCCAUGGAAACUAGGAGCACCAUUUCGCUGCCAGUGAAGAAAUGAACAAAGAUAAUCUGGGCCAGGCAGGCAUCAAAAGAAAUAGUCUUGCGCUCAACUAGAAAGUCUGUAAUCAUUUUAAGGGUA [A67U C113U] is lower in self-cleavage: 1.15 for the first, 0.42 for the second.

First: GUUAACGGUCAUAGGCCAUGGAAACUAGGAGCACCAUUUCGCUGCCAGUGAAGAAAUGAACAAAGAACAUCUGGGCCAGGCAGGCAUCAGAAGAAAUAGUCUUGCGCUCAACCAGAAAGUCUGUAAUCAUUUUAAGGGUA [A68C A90G]
Second: GUUAACGGUCAUAGGCCAUGGAAACUAGGAGCACCAUUUCGCUGCCAGUGAAGAAAUGAACAAAGAACAUCUGGGCCAGGCAGGCAUGAAAAGAAAUAGUCUUGCGCUCAACCAGAAAGUCUGUAAUCAUUUUAAGGGUA [A68C C88G]
The self-cleavage of the first is lower: 1.24 for the first, 1.63 for the second.

Going from GUUAACGGUCAUAGGCCAUGGAAACUAGGAGCACCAUUUCGCUGCCAGUGAAGAAAUGAACAAAGAACAUCUGGGCCAGGCAGGCAUCAAAAGAAAUAGUCUUGCGCUCAACCAGAAAGUCUGUAAUCAUUUUAAGGGUA [A68C] to GUUAACGGUCAUAGGCCAUGGAAACUAGGAGCACCAUUUCGCUGCCAGUGAAGAAAUGAACAAAGAACAUCUGGGCCAGGCAGGCAUCAAAAGAAAUAGUCUUGCGCUCAACCAGAAAGUCUGCAAUCAUUUUAAGGGUA [A68C U124C], the self-cleavage falls from 1.73 to 1.22.

First: GUUAACGGUCAUAGGCCAUGGAAACUAGGAGCACCAUUUCGCUGCCAGUGAAGAAAUGAACAAAGAUAAUCUGGGCCAGGCAGGCAUCAAAAGAAAUAGUCUUGCCCUCAACCAGAAAGUCUGUAAUCAUUUUAAGGGUA [A67U G106C]
Second: GUUAACGGUCAUAGGCCAUGGAAACUAGGAGCACCAUUUCGCUGCCAGUGAAGAAAUGAACAAAGAUAAUCUGGGCCAGGCAGGCAUCAAAAGAAAUAGUCUUGCGCUCAACCAGAAAGUCUGUAACCAUUUUAAGGGUA [A67U U127C]
The self-cleavage of the first is lower: 0.01 for the first, 1.01 for the second.

Compared with GUUAACGGUCAUAGGCCAUGGAAACUAGGAGCACCAUUUCGCUGCCAGUGAAGAAAUGAACAAAGAACAUCUGGGCCGGGCAGGCAUCAAAAGAAAUAGUCUUGCGCUCAACCAGAAAGUCUGUAAUCAUUUUAAGGGUA [A68C A78G], GUUAACGGUCAUAGGCCAUGGAAACUAGGAGCACCAUUUCGCUGCCAGUGAAGAAAUGAACAAAGAACAUCUGGGCCAGGCAGGCAUCAAAAGGAAUAGUCUUGCGCUCAACCAGAAAGUCUGUAAUCAUUUUAAGGGUA [A68C A94G] is higher in self-cleavage: 0.24 for the first, 1.69 for the second.

Going from GUUAACGGUCAUAGGCCAUGGAAACUAGGAGCACCAUUUCGCUGCCAGUGAAGAAAUGAACAAAGAUAAUCUGGGCCAGGCAGGCAUCAAAAGAAAUAGUCUUGCGCUCAACCAGAAAGUCUGUAAUCAUGUUAAGGGUA [A67U U131G] to GUUAACGGUCAUAGGCCAUGGAAACUAGGAGCACCAUUUCGCUGCCAGUGAAGAAAUGAACAAAGAUAAUCUGGGCCAGGCAGGCAUCAAAAGAAAUAGUCUUGCGCUCAACCAGAAAGUCUGUAAUCAUCUUAAGGGUA [A67U U131C], the self-cleavage rises from 1.68 to 2.18.

GUUAACGGUCAUAGGCCAUGGAAACUAGGAGCACCAUUUCGCUGCCAGUGAAGAAAUGAACAAAGAACAUCUGGGCCAGGCUGGCAUCAAAAGAAAUAGUCUUGCGCUCAACCAGAAAGUCUGUAAUCAUUUUAAGGGUA [A68C A82U] showed a self-cleavage of 0.23.
